Results from paper PMC7797366.

Assays:
LLHD3 [1] = biological target: T1, LLHD3 (Mus musculus, UniProt P61372;P50481); experiment: EMSA
T1 chain: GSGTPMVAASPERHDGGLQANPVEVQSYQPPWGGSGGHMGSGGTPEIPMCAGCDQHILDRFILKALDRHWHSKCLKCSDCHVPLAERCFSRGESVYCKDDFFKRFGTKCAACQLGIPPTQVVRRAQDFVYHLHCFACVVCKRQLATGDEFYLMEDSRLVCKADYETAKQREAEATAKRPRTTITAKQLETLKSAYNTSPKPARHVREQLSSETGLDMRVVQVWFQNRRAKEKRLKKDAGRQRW

2HD = biological target: T2, 2HD (Mus musculus, UniProt P61372;P50481); experiment: SAXS
T2 chain: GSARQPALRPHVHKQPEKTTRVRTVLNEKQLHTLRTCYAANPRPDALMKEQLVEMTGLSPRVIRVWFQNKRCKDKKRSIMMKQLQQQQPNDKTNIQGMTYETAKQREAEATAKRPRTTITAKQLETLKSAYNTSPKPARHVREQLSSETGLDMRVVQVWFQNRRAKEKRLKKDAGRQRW

2HDLL = biological target: T3, 2HDLL (Mus musculus, UniProt P61372;P50481); experiment: SEC-MALLS, SAXS
T3 chain: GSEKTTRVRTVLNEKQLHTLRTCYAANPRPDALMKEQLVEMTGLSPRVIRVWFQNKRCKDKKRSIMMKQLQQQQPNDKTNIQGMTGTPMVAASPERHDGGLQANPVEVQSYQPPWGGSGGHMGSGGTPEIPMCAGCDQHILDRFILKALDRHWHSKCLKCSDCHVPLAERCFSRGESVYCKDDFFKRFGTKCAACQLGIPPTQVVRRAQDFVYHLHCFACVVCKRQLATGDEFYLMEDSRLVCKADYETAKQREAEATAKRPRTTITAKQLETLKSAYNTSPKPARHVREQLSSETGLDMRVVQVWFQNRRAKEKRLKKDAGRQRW

LLHD3 [2] = biological target: T1, LLHD3; experiment: EMSA

B1: ISL1GA (dsDNA)
DNA 1: ACCGCGTAATATCTG
DNA 2: CAGATATTACGCGGT
LLHD3 [1]
  binding result: no binding

B2: M100 20-mer (SAXS) (dsDNA)
DNA 1: CCGCATTAGCCAAATTACGC
DNA 2: GCGTAATTTGGCTAATGCGG
2HD
  binding result: binds
2HDLL
  binding result: binds

B3: M100 (EMSA) (dsDNA)
DNA 1: CGGCCATTAGCCAAATTACGGC
DNA 2: GCCGTAATTTGGCTAATGGCCG
LLHD3 [2]
  Kd: 1 µM
